B1: AgRP-2Q (peptide)
peptide: SSRRCVRLHESCLGQQVPCCDPCATCYCRFFNAFCYCRQLGTAMNPCSQT-NH2
modifications: disulfide (positions not given here)
B2: AgRP-4K (peptide)
peptide: KKRRCVRLHESCLGQQVPCCDPCATCYCRFFNAFCYCRKLKTKMNPCSRT-NH2
modifications: disulfide (positions not given here)
B3: AgRP-2K (peptide)
peptide: SSRRCVRLHESCLGQQVPCCDPCATCYCRFFNAFCYCRKLKTKMNPCSRT-NH2
modifications: disulfide (positions not given here)
B4: AgRP-4Q (peptide)
peptide: SSQQCVRLHESCLGQQVPCCDPCATCYCRFFNAFCYCRQLGTAMNPCSQT-NH2
modifications: disulfide (positions not given here)
B5: AgRP(83-120) (peptide)
peptide: SSRRCVRLHESCLGQQVPCCDPAATCYCRFFNAFCYCR-NH2
modifications: disulfide (positions not given here); not fully specified; also: oxidatively folded, disulfide pairing not given here
B6: AgRP(87-120) (peptide)
peptide: Ac-CVRLHESCLGQQVPCCDPAATCYCRFFNAFCYCR-NH2
modifications: disulfide (positions not given here); not fully specified; also: oxidatively folded, disulfide pairing not given here

Ends that are not written are not given here.

The target in the first test is hMC4R (human, UniProt P32245 1-332). The test is described as follows: cell-based or functional assay.
Sequence of hMC4R (P32245 whole entry): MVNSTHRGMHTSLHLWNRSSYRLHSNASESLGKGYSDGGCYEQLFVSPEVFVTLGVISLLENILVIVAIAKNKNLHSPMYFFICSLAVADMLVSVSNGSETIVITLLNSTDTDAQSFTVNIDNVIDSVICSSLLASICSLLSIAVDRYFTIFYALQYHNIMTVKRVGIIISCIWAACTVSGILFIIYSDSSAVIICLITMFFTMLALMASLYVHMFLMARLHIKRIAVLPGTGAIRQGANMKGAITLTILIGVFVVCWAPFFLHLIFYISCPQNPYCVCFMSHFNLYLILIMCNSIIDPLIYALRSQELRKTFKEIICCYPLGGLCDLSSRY
Regarding B1, the “EC50 (nM), NDP-MSH stimulated cAMP production in the presence of 0.10 µM AgRP protein” value (shortened to “EC50 (nM)”) is 6.66 nM. The same measure, in the same setting: the same measure for B2: 1.72 nM; for B3: 4.54 nM. The same measure, in the same setting: under B4 stands 1.8 nM; under B5, 4.92 nM.

For a further test, the target named is hMC3R (human, UniProt P41968 1-323). Kind of test: cell-based or functional assay.
Sequence of hMC3R (P41968 whole entry): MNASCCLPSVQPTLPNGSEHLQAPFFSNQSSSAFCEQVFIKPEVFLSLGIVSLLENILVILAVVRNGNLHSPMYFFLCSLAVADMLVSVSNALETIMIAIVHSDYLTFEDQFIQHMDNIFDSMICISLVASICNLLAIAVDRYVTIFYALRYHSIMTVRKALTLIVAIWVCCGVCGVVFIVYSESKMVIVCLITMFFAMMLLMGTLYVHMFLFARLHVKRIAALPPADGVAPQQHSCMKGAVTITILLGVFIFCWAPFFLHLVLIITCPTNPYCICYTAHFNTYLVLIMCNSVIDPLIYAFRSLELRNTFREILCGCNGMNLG
Regarding B6, the “EC50 (nM)” value is 5.5 nM. For B1, the “EC50 (nM)” value was 9.22 nM. For the molecule B2, the “EC50 (nM)” value is 2.66 nM.

On to B3, for which the “EC50 (nM)” value was found to be 16.1 nM. On to B4, for which the “EC50 (nM)” value amounted to 1.62 nM. B5: the “EC50 (nM)” value is 2.96 nM.

The values are drawn from patent publication US20140148397A1 (University of California, published 2014).
